Results published in the supplement of paper PMC10567573.

B1: NEK8 (parent)
chain: VVGTPCYISPELCEGKPYNQKSDI

Variants of: B1
Experiment: protein stability index of a GFP-peptide fusion (GPS, HEK-293T) (PSI 1-6); higher = more stable
Details: c terminus: a fixed tail appended
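Note: lentivirally expressed fusions sorted by FACS into six bins by GFP to DsRed ratio, PSI derived from sequencing read proportions per bin multiplied by bin number.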

Protein stability index: each site, then its substitutions
V1: R 3.74; P 4.25; Q 4.14; N 4.48; T 3.76; S 4.03; Y 2.88; W 2.62
G3: D 3.26; C 2.23; M 1.84; T 3.01; R 2.74; H 2.74; K 2.9; S 3.01; L 1.63; V 2.07; Y 1.65; F 1.48; N 3.52; A 2.31; W 2.05; P 3.38; E 2.7; I 1.8; Q 2.5
T4: Q 4.19; W 2.13; N 3.87; P 3.46; C 2.85; R 2.79; G 3.34; L 2.39; E 4.08; F 2.21; I 1.75; V 1.99; H 3.02; D 3.72; Y 2.25; K 3.45; S 3.68; A 2.95; M 2.78
V2: S 3.75; R 3.4; H 3.68; C 2.89; G 3.66; P 3.44; E 4.59; I 3.56; T 3.73; Y 3.23; K 3.93; W 2.8; N 3.63; D 3.9; A 3.49; M 3.23; F 3.12; L 3.58; Q 3.77
Y7: K 3.92; Q 4.35; D 4.69; R 3.96; N 4.52; C 4.16; M 3.97; A 3.94; G 3.98; S 3.69; W 2.82; T 4.36; H 3.87; E 4.5; I 4.08; P 4.16; V 4.04; L 3.83; F 3.05
S9: I 2.32; G 2.99; R 2.48; D 3.44; T 2.61; C 1.94; W 2.25; E 3.16; H 2.04; Q 2.62; P 3.58; V 2.31; N 2.31; A 2.45; L 1.68; F 1.96; K 3.61; M 2.4; Y 1.55
P10: E 3.6; D 3.23; C 2.22; F 2.03; A 2.96; H 3.66; G 3.56
C6: N 2.38; E 4.34; Q 4.11; F 2.14; K 3.48; D 4.4; S 3.08; I 3.07; Y 2.02; T 3.26; L 3.25; A 2.81; W 2.5; H 2.47; G 3.39; R 3.88; V 2.71; M 3.56; P 3.38
I8: C 3.05; T 3.77; A 4.4; S 3.98; P 4.29; Q 4.42; F 2.9; V 4.03; Y 2.31; H 3.2; D 4.18; R 3.7; W 2.27; E 4.5; G 4.42; N 4.4; M 2.89; K 4.14; L 3.48
P5: A 3.05; Y 2.06; L 2.28; Q 3.62; S 3.36; T 3.32; V 1.89; C 2.56; H 3.14; N 3.21; G 3.27; K 3.18; E 3.53; I 1.64; R 2.76; M 2.75; F 1.16; W 1.66; D 2.98
